Assays:
GSK-3 beta = test: Co-immunoprecipitation of GSK-3 beta with Myc-tagged Xaxin constructs in Xenopus oocytes; assay type: binding; details: Myc-tagged construct co-expressed with GSK-3 beta in Xenopus oocytes; anti-Myc IP, anti-GSK-3 beta blot
beta-catenin = beta-catenin protein accumulation in Xenopus oocytes (immunoblot); assay type: cell-based; details: construct mRNA expressed in Xenopus oocytes
Protocol: FIG. 2A is an image of an immunoblot of Xenopus cytoplasmic extracts obtained from Xenopus embryos in which beta-catenin was expressed, using an antibody which binds specifically with beta-catenin (described in McCrea et al., 1993, J. Cell. Biol. 123:477-84). The embryo corresponding to lane 2 was incubated in the presence of 20 millimolar LiCI. Extracts corresponding to lanes 3-5, 7, and 8 were obtained from embryos in which full-length (lane 8) Xaxin or the C-term (lane 3), GID1 (“GID”; lanes 4 and 7), or N-term (lane 5) fragments of Xaxin were expressed.
Although endogenous GSK-3 beta is not present at sufficient levels to detect using the tau assay, inhibition of GSK-3 beta is known to cause stabilization of cytoplasmic beta-catenin (Cadigan et al., 1997, Genes Dev. 11:3286-3305; Miller et al., 1996, Genes Develop. 10:2527-2539), and this serves as a widely used assay for downstream activation of wnt signaling. Inhibition of endogenous GSK-3 beta activity also causes stabilization of beta-catenin in Xenopus embryos and oocytes (Hedgepeth et al., 1997, Develop. Biol. 185:82-91; Yost et al., 1998, Cell 93:1031-1041; Yost et al., 1996, Genes Develop. 10:1443-1454). For this reason, levels of beta-catenin protein were assessed in Xenopus oocytes which had been injected either with full length Xaxin mRNA or with mRNA encoding one of the amino-terminal, GID, or carboxyl-terminal domains of Xaxin.

[1] = test system: LEF-1 dependent transcription (wnt signaling); test: LEF-luciferase reporter of wnt signaling in 293T cells; assay type: cell-based; details: 293T cells
Protocol: LEF-1 (also designated tcf) is a DNA-binding protein that also binds with beta-catenin. The beta-catenin/LEF-1 complex is known to activate transcription of wnt target genes. A genetic construct was made which comprised this LEF-1-binding promoter operably linked with a luciferase gene, for use as a reporter of wnt signaling.
Single plasmids encoding individual GID fragments were transfected into 293T cells, together with the LEF-luciferase reporter, and luciferase activity was measured after 24 hours. GID fragments induced up to 100- to 250-fold activation of LEF-luciferase (normalized to activity from the mutated LEF-reporter control, which was activated less than 2-fold).

FL Xaxin = target: T1, FL Xaxin (Xenopus laevis, UniProt Q9YGY0); test: Yeast two hybrid assay, interaction with FL Xaxin; assay type: binding; details: beta-galactosidase filter assay in S. cerevisiae
T1 construct: expressed in transfected cells; host or cells: Saccharomyces cerevisiae
From the text: (§1) FL Xaxin was cloned in frame with the GAL4 DNA binding domain (BD) in plasmid pAS2-1 (Clontech) to yield BD plasmid. Expression of BD plasmid yielded a Xaxin-GAL4 fusion protein. FL Xaxin, deltaDIX Xaxin, and a fragment (designated “AID”) encoding amino acid residues 489-777 of Xaxin were cloned in frame with the GAL4 transcriptional activation domain (AD) in the vector pACT2 to yield AD plasmids. Yeast were transformed with BD and AD plasmids using previously described protocols (Clontech, Palo Alto, Calif.). Transformed colonies were selected and assayed for beta-galactosidase activity in order to detect interacting proteins. In addition, three Xenopus axin partial length cDNAs (designated Y2H 2, Y2H 6, Y2H 7; all in plasmid pACT2) isolated from a previous yeast two hybrid screen (Hedgepeth et al., 1999, Mech. Develop. 80:147-151) were analyzed. Purification of GID
(§2) Using the yeast two hybrid assay, the ability of axin to bind with itself, with other members of the wnt pathway, or with the G(alpha)q subunit of heterotrimeric G-proteins, was investigated. […]
(§3) Saccharomyces cerevisiae cells were transformed with the bait vector and with one of the target vectors. Interaction was assessed using a filter assay to detect beta-galactosidase activity, as described (Fields et al., 1989, Nature 340:245-247; Harper et al., 1993, Cell 75:805-816). […]

[2] = test system: carboxyl-terminal fragment of Xenopus frizzled 3; test: Yeast two hybrid assay, interaction with frizzled 3 fragment; assay type: binding; details: beta-galactosidase filter assay in S. cerevisiae
From the text: as §1, §2, §3

[3] = target: T2, G(alpha)q subunit of heterotrimeric G-proteins (Homo sapiens, UniProt P50148); test: Yeast two hybrid assay, interaction with G(alpha)q; assay type: binding; details: beta-galactosidase filter assay in S. cerevisiae
T2 sequence (P50148 1-359): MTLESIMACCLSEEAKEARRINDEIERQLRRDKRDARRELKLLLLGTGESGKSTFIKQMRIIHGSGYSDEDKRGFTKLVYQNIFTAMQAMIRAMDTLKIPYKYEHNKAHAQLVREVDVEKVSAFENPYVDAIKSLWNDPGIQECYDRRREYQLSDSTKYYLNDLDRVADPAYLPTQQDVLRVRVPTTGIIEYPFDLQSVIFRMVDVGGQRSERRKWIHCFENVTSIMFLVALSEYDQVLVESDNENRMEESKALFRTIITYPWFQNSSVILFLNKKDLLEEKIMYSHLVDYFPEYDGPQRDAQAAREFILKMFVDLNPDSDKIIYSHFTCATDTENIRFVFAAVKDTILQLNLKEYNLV
From the text: as §1, §2, §3

axin = target: T3, axin (Xenopus laevis, UniProt Q9YGY0); test: Co-immunoprecipitation of myc-tagged and HA-tagged axin in Xenopus embryos; assay type: binding
T3 construct: Full length (FL) Xaxin was assembled into plasmid CS2MT using restriction fragments of partial cDNA clones; expressed in transfected cells; host or cells: Xenopus embryos (fertilized eggs injected with mRNA, harvested at stage 8)

[4] = test system: GSK-3 beta protein lacking amino-terminal or carboxyl-terminal residues; test: Binding of full length axin to truncated GSK-3 beta; details: GSK-3 beta lacking as many as 62 amino-terminal or 132 carboxyl-terminal residues

B1: full length Xaxin: full length Xenopus axin, amino acid residues 1-842 (SEQ ID NO: 8) (protein, listed as Xenopus laevis)
chain: MSVKGKGFPLDLGGSFTEDAPRPPVPGEEGELITTDQRPFSHTYYSLKNDGIKNETSTATPRRPDLDLGYEPEGSASPTPPYLKWAESLHSLLDDQDGIHLFRTFLQQENCADLLDFWFACSGFRKLEPNDSKVEKRLKLAKAIYKKYVLDSNGIVSRQIKPATKSFIKDCVLRQQIDPAMFDQAQMEIQSMMEDNTYPVFLKSDIYLEYTTIGGESPKNYSDQSSGSGTGKGPSGYLPTLNEDEEWRCDQGGEHERERECIPSSLFSQKLALDSSSHCAGSNRRLSDGREFRPGTWREPVNPYYVNTGYAGAPVTSANDSEQQSMSSDADTMSLTDSSVDGIPPYRLRKHYRREMQESANANGRGPLPHIPRTYHMPKDIHVDPEKFAAELISRLEGVLRDREAEQKLEERLKRVRAEEEGDDGDVSSGPSVISHKLPSGPPMHHFNSRYSETGCVGMQIRDAHEENPESILDEHVQRVMKTPGCQSPGTGRHSPKSRSPDGHLSKTLPGSLGTMQTGHGKHSSKSTAKVDSGNLHHHKHVYHHVHHHGGVKPKEQIDGESTQRVQTNFPWNVESHNYATKSRNYAESMGMAPNPMDSLAYSGKVSMLSKRNAKKADLGKSESASHEMPVVPEDSERHQKILQWIMEGEKEIIRHKKSNHSSSSAKKQPPTELARPLSIERPGAVHPWVSAQLRNVVQPSHPFIQDPTMPPNPAPNPLTQLVSKPGARLEEEEKKAAKMPQKQRLKPQKKNVSAPSQPCDNIVVAYYFCGEPIPYRTMVKGRVVTLGQFKELLTKKGNYRYYFKKVSDEFDCGVVFEEVREDDMILPIYEEKIIGQVEKID
For B1, the “binding with GSK-3 beta (co-immunoprecipitation)” value (GSK-3 beta) was “bound”, the accumulation of beta-catenin (beta-catenin) was “not observed” and the “activation of wnt signaling (LEF-1-binding promoter luciferase reporter)” value [1] was “not”. For the same molecule, the “interaction with FL Xaxin (self-interaction)” value (FL Xaxin) was “interacted strongly”, the “interaction with carboxyl-terminal fragment of Xenopus frizzled 3” value [2] was “did not interact” and the “interaction with G(alpha)q” value [3] was “did not interact”. For the same molecule, the “axin self-interaction (co-immunoprecipitation)” value (axin) was “interacts with itself” and the “binding with truncated GSK-3 beta” value [4] was “able to bind”.

— US20010052137A1, “Axin domain-like polypeptide inhibitors of glycogen synthase kinase 3 beta activity and activators of wnt signaling” (Trustees of the University of Pennsylvania, priority 2000, published 2001)
